T1: human DLL3 (immobilized human DLL3 or h293-hDLL3 cells) (human, UniProt Q9NYJ7 27-492, limits assumed)
T1 construct: the sentence says 'immobilized human DLL3 or h293-hDLL3 cells'
T1 sequence: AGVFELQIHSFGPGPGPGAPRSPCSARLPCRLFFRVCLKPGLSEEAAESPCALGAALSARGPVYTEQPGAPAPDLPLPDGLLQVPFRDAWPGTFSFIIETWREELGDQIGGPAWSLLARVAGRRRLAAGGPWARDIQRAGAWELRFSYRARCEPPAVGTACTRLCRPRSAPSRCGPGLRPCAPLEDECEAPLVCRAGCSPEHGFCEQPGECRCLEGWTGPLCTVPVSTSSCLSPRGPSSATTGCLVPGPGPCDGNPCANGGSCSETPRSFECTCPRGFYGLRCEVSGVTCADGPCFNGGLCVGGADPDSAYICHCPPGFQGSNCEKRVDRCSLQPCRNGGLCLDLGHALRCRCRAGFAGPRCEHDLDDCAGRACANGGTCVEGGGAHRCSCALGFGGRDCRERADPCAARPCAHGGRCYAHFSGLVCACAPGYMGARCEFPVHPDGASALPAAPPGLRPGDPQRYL


Biological target: T1, human DLL3 (immobilized human DLL3 or …)
Experiment: hybridoma screening on immobilized human DLL3 or on h293-hDLL3 cells

Row | binding result | Binder
1 | binds | SC16.103 (antibody, V domains shown, murine mAb; variable regions only) VH: QVTLKESGPGILKPSQTLSLTCSFSGFSLSTSGMGIGWIRQPSGKGLEWLAHIWWDDDKYYNPSLKSQLTISKDSSRNQVFLKITSVDTADTATYYCARRGTAYYFDYWGQGTTLTVSS VL: DIVLTQSPASLAVSLGQRATISCRASKSVSTSGYSYMHWYQQKPGQPPKLLIYLASNLESGVPARFSGSGSGTDFTLNIHPVEEEDAATYYCQHSRELPLTFGAGTKLELK
2 | binds | SC16.84 (antibody, V domains shown, murine mAb; variable regions only) VH: EVQLQQSGPELVKPGASMKISCKASGYSFTGYTMNWVKQSHGKNLEWIGLINPYNGGTTYNQKFKGKATLTVDKSSSTAYMELLSLTSEDSAVYYCALGYYGNYRRYFDVWGAGTTVTVSS VL: DIQMTQSPSSLSASLGGKVTITCKASQDIKKYIAWYQHKPGKGPRLLIHYTSTLEPGIPSRFSGSGSGRDYSFSISNLEPEDIATYYCLQYDILWTFGGGTKLEIK
3 | binds | SC16.81 (antibody, V domains shown, murine mAb; variable regions only) VH: QVQLKESGPVLVAPSQSLSITCTVSGFSLTSYGVHWVRQPPGKGLEWLGVIWAGGSTNYNSALMSRLSISKDNSKSQVFLKMNSLQTDDTAMYYCAKQGNFYAMDYWGQGTSVTVSS VL: QIVLTQSPAIMSASLGERVTLTCTASSSVSSSYLHWYQQKPGSSPKLWIYSTSNLASGVPTRFSGSGSGTSYSLRISSMEAEDAATYYCHQYNRSPLTFGAGTKLELK
4 | binds | SC16.101 (antibody, V domains shown, murine mAb; variable regions only) VL: QIVLTQSPAIMSASLGERVTMTCTASSSVSSSYLHWYQQKPGSSPKLWIYSTSNLASGVPARFSGSESGTSYSLTISNMEAEDAATYYCHQYHRSPFTFGSGTKLEIK V domain: QVTLKESGPGILQPSQTLSLTCSFSGFSLSTSGMGVGWIRQPSGKGLEWLAHIWWDDVKRYNPALKSRLTISKDASSSQVFLKIASVDTAETATYYCAHILDRAYYFDYWGQGTTLTVTS
5 | binds | SC16.80 (antibody, V domains shown, murine mAb; variable regions only) VH: EVQLQQSGPELVKPGGSKKISCKASGYSFTGYSMNWVKQSHGKNLEWIGLINPYSGGTIYNQKFKGKATLTVDKSSSTAYMELLSLTSEDSAVYYCARRSDYPLVYWGQGTLVTVSA VL: ETTVTQSPASLSMAIGEKVTIRCITSTDIDDDMIWYQQKPGEPPKLLISEGNTLRPGVPSRFSSSGYGTDFVFTIENMLSEDVADYYCLKRDDLPYTFGGGTQVEIK

Second part, the binder before the results:

Row | Binder | binding result
6 | SC16.104 (antibody, V domains shown, murine mAb; variable regions only) VH: QVQLKESGPDLVQPSQTLSLTCTVSGFSLTFYGVHWVRQPPGKGLEWVGTMGWDDKKYYNSALKSRLSISRDTSKNQVFLKLSSLQTEDTAMYYCTRGGTGFDYWGQGTTLTVSS VL: QIVLSQSPAILSASPGEKVTMTCRASSSVSYIHWYRQKPGSSPKPWIYATSNLASGVPARFSGSGSGTSYSLTISRVEAEDAATYYCQQWSSNPPTFGAGTKLELK | binds
7 | SC16.105 (antibody, V domains shown, murine mAb; variable regions only) VH: QVQLQQPGAELVKPGASVKLSCKASGYTFTSYWMHWVKQRPGQGLEWIGVINPSNGRTNYNEKFKSKATLTVDKSSSTAYMQLSSLTSEDSAVYYCARRRELGTLYAMDYWGQGTSVTVSS VL: DIVMTQSHKFMSTSVGDRVSITCKASQDVGTAVAWYQQKPGQSPKLLIYWASIRHTGVPDRFTGSGSGTDFTLTISNVQSEDLADYFCQQYSSYPLTFGAGTKLELK | binds
8 | SC16.88 (antibody, V domains shown, murine mAb; variable regions only) VH: QVQLQQSGAELARPGASVKLSCKASGYTCTSYWMQWVKQRPGQGLEWIGAIYPGDGDTRYTQKFKGKATLTADKSSSTAYMQLSSLASEDSAVYYCARGRRTEAWFAYWGQGTLVTVSA VL: not shown | binds
9 | SC16.106 (antibody, V domains shown, murine mAb; variable regions only) VH: QVQLKQSGPGLVAPSQSLFITCTVSGFSLTSYEINWVRQPPGKGLEWLGVIWTGGSTNYNSALISRLSISKDNSKSLVFLKMNSLQTDDTAIYYCVRGVYAMDYWGQGTSVTVSS VL: DIKMTQSPSSMYASLGERVTITCKASQDINSYLSWFQQKPGKSPKTLIYRANRLVDGVPSRFSGSGSGQDYSLTISSLEYEDMGIYYCLQYDEFPFTFGSGTKLEIK | binds
